The assay deals with peptide(18mer)-BodipyFL.

Substance “NlpA-[Dig scFv] (26-10 anti-digoxin/digoxigenin scFv fused to the NlpA anchor) (from UniProt P04846 24-29)” yielded a M (mean fluorescence, FL1-Height) of 6.78.

The record behind these values is patent publication US20040058403A1.
